In assay [1] the target is T1, IL-17A protein (human, UniProt Q16552 24-155).
T1 sequence (looked up): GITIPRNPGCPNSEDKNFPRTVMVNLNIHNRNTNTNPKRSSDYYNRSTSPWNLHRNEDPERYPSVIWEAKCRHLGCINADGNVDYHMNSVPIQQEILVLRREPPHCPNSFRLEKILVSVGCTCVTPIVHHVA
Put plainly: cell-based or functional assay.

The target in assay [2] is T1, IL-17A protein. Nature of the assay: SPR, Biacore 8K, antibody captured on Protein A, IL-17A as analyte. For orientation: Surface plasmon resonance follows binding to a sensor surface in real time, without labels.
Assay [3] addresses T1, IL-17A protein. Put plainly: ELISA, IL-17A coated on the plate.
In another assay the target is T2, VEGF165 (UniProt P15692-4 27-191).
T2 construct: treated as one molecule; also called VEGF protein; VGEF
Nature of the assay: ELISA, VEGF coated on the plate. (An ELISA detects its analyte on a solid surface through an enzyme-linked reagent.)

T2 sequence (P15692 other isoform, or with tags, fused parts or gaps limits assumed): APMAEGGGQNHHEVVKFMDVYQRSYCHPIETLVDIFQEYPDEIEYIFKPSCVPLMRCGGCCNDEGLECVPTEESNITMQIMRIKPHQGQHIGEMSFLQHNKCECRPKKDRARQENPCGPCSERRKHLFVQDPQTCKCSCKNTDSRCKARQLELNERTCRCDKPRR

B1: anti-IL-17 monoclonal antibody 608 (antibody, human IgG1, kappa, V domains shown)
VH: EVQLVESGGGLVQPGGSLRLSCAASGFTFSSFDMSWGRQAPGKRLEWVAFMSSGGSTYYPDSVKGRFTISRDNSKNTLYLQMNSLRAEDTAVYYCARGERYGSYWGQGTLVTVSS
VL: DIQMTQSPSSLSASVGDRVTITCKASDHINNWLAWYQQKPGKAPKLLISGATSLETGVPSRFSGSGSGTDYTLTISSLQPEDFATYYCQQYWSTPFTFGSGTKLEIKR
notes: Humanized anti-human IL-17A monoclonal antibody from CN 201780033670.5; positive control
Consider B1, for which the “IC50 of blocking IL-17A-induced IL-6 secretion from HeLa cells” value with IL-17A protein [1] is 877 pM. Besides, in the assay with IL-17A protein [2], binding was put at a Kd of 16.4 pM; the koff (in general, the rate constant with which the complex falls apart) turned out to be 4e-05 s⁻¹; the kon – broadly, the rate constant with which the complex forms – is 2.44e+06 M⁻¹ s⁻¹. Further, the midpoint of the response with IL-17A protein [3], the EC50, lay at 52 pM. Besides, in the assay with VEGF165, the binding result was “no binding (tested: 25 nM (highest concentration tested))”.

The record behind these values is patent EP4431529A1 (Sunshine Guojian Pharmaceutical (Shanghai) Co., Ltd., dated 2024).
